Laboratory results as given in US20220251202A1 (ASHER BIOTHERAPEUTICS, published 2022).

Molecular target: T1, mouse CD8 (on mouse CD8+ T cells) (mouse, UniProt P01731 28-247; P10300 22-213)
T1 construct: whole, on cells
Experiment: flow cytometry on mouse splenocytes, anti-hFc MFI
Experimental: Fresh splenocytes were incubated with the indicated antibodies for 2 hours at 4° C. The cells were then stained with antibodies against CD3, CD4, CD8 and anti-hFc. anti-hFc was used to measure the binding of CD8-IL2 fusion containing hFc. Cells were washed and analyzed by flow cytometry.
The binding affinity of anti-mouse CD8 antibodies was determined through flow cytometry analysis. […] The xCD8ab2.1 clone is derived from xCD8ab2 by introduction of mutations N95A (VH) and D92A (VK). After incubation with the anti-mouse CD8 antibody, the cells were then stained with antibodies against CD3, CD4, CD8 and anti-hFc (HP6017, Biolegend), the latter of which was used to measure the binding of CD8-IL2 fusion containing hFc. Stained cells were washed and analyzed by flow cytometry and mean fluorescence intensity (MFI) of staining with anti-hFc was used to denote binding.

Row | binding result | Binder
1 | binds | xmCD8ab2 (published clone YTS156.7.7) (antibody, V domains shown, Carries a human Fc; also called xCD8ab2) VH: EVKLQESGPSLVQPSQTLSLTCSVSGFSLISDSVHWVRQPPGKGLEWMGGIWADGSTDYNSALKSRLSISRDTSKSQGFLKMNSLQTDDTAIYFCTSNRESYYFDYWGQGTMVTVSS VL: DIQMTQSPASLSASLGDKVTITCQASQNIDKYIAWYQQKPGKAPRQLIHYTSTLVSGTPSRFSGSGSGRDYSFSISSVESEDIASYYCLQYDTLYTFGAGTKLELK
2 | binds | xmCD8ab2.1 (antibody, V domains shown, Carries a human Fc; also called xCD8ab2.1) VH: EVKLQESGPSLVQPSQTLSLTCSVSGFSLISDSVHWVRQPPGKGLEWMGGIWADGSTDYNSALKSRLSISRDTSKSQGFLKMNSLQTDDTAIYFCTSARESYYFDYWGQGTMVTVSS VL: DIQMTQSPASLSASLGDKVTITCQASQNIDKYIAWYQQKPGKAPRQLIHYTSTLVSGTPSRFSGSGSGRDYSFSISSVESEDIASYYCLQYATLYTFGAGTKLELK
